Laboratory results from patent US20260258113A1, “BETA GLOBIN MIMETIC PEPTIDES AND THEIR USE” (THE UNITED STATES OF AMERICA, AS REPRESENTED BY THE …, priority 2022, published 2026).

Target: endothelial nitric oxide synthase (eNOS), endogenous, in human resistance arteries (human) (UniProt P29474)
Assay: cell-based or functional assay

Chain of endothelial nitric oxide synthase (eNOS), endogenous, in human resistance arteries (human) (P29474 2-1203 limits assumed): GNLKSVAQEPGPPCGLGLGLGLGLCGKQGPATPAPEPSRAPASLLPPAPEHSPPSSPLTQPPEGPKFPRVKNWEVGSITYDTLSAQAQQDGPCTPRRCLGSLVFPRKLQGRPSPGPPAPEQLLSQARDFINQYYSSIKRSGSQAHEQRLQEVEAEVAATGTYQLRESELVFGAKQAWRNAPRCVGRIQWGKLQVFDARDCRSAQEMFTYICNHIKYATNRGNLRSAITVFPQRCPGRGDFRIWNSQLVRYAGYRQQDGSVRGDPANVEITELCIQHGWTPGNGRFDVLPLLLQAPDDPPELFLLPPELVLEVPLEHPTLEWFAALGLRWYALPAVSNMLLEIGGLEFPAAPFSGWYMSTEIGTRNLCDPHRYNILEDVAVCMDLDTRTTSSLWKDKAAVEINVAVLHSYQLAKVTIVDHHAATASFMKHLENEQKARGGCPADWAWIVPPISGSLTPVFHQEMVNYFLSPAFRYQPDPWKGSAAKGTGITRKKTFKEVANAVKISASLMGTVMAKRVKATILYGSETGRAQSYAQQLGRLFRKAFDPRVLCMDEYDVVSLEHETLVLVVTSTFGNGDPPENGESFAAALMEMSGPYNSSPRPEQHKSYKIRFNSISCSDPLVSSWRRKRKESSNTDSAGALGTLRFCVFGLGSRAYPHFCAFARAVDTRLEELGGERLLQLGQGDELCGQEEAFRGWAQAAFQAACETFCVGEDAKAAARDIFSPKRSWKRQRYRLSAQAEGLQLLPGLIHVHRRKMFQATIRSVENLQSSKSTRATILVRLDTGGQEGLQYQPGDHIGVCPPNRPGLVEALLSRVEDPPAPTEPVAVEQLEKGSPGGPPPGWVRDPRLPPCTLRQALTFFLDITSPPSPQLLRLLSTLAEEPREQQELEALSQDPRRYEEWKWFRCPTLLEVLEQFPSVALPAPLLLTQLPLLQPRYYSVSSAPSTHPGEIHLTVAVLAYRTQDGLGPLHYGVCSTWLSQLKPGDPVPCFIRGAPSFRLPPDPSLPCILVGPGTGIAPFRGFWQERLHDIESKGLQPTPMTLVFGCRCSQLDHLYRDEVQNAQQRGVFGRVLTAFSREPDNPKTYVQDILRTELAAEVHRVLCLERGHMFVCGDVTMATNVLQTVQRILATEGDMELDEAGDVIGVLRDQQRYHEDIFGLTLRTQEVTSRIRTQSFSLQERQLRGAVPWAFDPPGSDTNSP

**Q.** Which results are given for “alpha globin mimetic peptide HbαX with N-terminal HIV-tat tag”?
**A.** Bottom (4-PL minimum of phenylephrine-induced constriction, % of baseline diameter), PE + Mimetic + LNAME, human omental arteries, pressure myography (% of baseline diameter): 41.9; Bottom (4-PL minimum of phenylephrine-induced constriction, % of baseline diameter), PE + Mimetic, human omental arteries, pressure myography, peptide 5 µmol/L (% of baseline diameter): 64.6
